For 1 substance, activity results are on record in patent US6395548.

This data set has as its target EPAS1 (HIF-2alpha) (Homo sapiens) (UniProt Q99814). Nature of the data set: cell_activity. The conditions noted are these: luciferase reporter, 6 ug plasmid, BAEC; direct binding not shown. (Reporter assays use an easily measured gene product as a stand-in for the process of interest.)

Chain of EPAS1 (HIF-2alpha) (Homo sapiens) (Q99814 whole entry): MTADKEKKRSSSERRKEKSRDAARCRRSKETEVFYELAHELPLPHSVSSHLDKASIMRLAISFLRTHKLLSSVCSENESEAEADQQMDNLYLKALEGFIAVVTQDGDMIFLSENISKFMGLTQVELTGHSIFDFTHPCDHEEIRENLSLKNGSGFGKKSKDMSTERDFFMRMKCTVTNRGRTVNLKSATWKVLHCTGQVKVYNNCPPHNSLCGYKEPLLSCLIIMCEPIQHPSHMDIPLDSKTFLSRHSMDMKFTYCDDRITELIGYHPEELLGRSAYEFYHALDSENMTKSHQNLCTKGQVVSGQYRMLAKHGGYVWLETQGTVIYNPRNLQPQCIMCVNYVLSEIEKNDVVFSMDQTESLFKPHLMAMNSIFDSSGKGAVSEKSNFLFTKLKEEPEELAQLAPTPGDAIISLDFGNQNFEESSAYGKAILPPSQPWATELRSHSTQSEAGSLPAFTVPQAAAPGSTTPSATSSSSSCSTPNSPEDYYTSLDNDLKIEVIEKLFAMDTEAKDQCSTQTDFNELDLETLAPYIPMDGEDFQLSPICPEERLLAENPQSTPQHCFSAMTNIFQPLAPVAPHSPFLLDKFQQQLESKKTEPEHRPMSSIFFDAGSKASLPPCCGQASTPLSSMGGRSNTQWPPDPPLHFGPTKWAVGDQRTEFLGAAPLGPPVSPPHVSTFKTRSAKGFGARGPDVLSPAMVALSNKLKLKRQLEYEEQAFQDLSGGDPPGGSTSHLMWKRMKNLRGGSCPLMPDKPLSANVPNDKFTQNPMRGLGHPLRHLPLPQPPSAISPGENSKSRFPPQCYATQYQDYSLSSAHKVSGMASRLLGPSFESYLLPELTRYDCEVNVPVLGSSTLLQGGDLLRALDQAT

In turn, KDR/flk-1 promoter -4 kb to +296 came in with an activity of 12.9 fold.
